# PMC6722932 (Toxins, 2019)
# Molecular target: the molecule itself
# Assay: negative-stain electron microscopy; 7 uM lysenin incubated with MLVs of SM/DOPC/cholesterol (1:2:1) for 30 min at 20 °C, with or without 10 mM DTT; fixed with 1% glutaraldehyde, stained with 2% uranyl acetate
protein,measurement,value
"lysenin^WT (natural protein, also called recombinant lysenin; wild-type lysenin; source: E. coli BL21(DE3), purified (Ni Sepharose 6 Fast Flow)) MSAKAAEGYEQIEVDVVAVWKEGYVYENRGSTSVDQKITITKGMKNVNSETRTVTATHSIGSTISTGDAFEIGSVEVSYSHSHEESQVSMTETEVYESKVIEHTITIPPTSKFTRWQLNADVGGADIEYMYLIDEVTPIGGTQSIPQVITSRAKIIVGRQIILGKTEIRIKHAERKEYMTVVSRKSWPAATLGHSKLFKFVLYEDWGGFRIKTLNTMYSGYEYAYSSDQGGIYFDQGTDNPKQRWAINKSLPLRHGDVVTFMNKYFTRSGLCYDDGPATNVYCLDKREDKWILEVVG",binding result,binds
